Assay results: the supplement of paper PMC9112550, “Optimization of the antimicrobial peptide Bac7 by deep mutational scanning” (BMC Biology, 2022)

System: Escherichia coli TOP10
Experiment: shrunken log2 fold change of peptide-encoding DNA abundance (4.5 h post-induction vs induction); higher = less antimicrobial activity (less host growth inhibition)
Details: time post-induction: 4.5 h; library: site-saturation at positions 5, 18, 19, 20
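Note: peptides expressed intracellularly from a pBAD plasmid library in pooled LB shake-flask culture, induced with 0.3% L-arabinose, DNA abundance read by NGS, three biological replicates, DESeq2 with apeglm shrinkage.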

Row | Sequence | shrunken log2 fold change
1 | RRIRCRPPRLPRPRPRPIRSPRP | -0.389
2 | RRIRCRPPRLPRPRPRPISEPRP | -0.0601
3 | RRIRCRPPRLPRPRPRPISRPRP | -0.503
4 | RRIRCRPPRLPRPRPRPIWFPRP | 0.21
5 | RRIRCRPPRLPRPRPRPIWLPRP | 0.122
6 | RRIRCRPPRLPRPRPRPIYMPRP | -1.29
7 | RRIRCRPPRLPRPRPRPKACPRP | 0.0182
8 | RRIRCRPPRLPRPRPRPKCLPRP | 0.036
9 | RRIRCRPPRLPRPRPRPKCWPRP | 0.302
10 | RRIRCRPPRLPRPRPRPKDEPRP | 0.393
11 | RRIRCRPPRLPRPRPRPKDLPRP | -0.46
12 | RRIRCRPPRLPRPRPRPKEMPRP | 0.0303
13 | RRIRCRPPRLPRPRPRPKETPRP | -0.0766
14 | RRIRCRPPRLPRPRPRPKEWPRP | 0.0878
15 | RRIRCRPPRLPRPRPRPKFQPRP | -0.0341
16 | RRIRCRPPRLPRPRPRPKFVPRP | -0.155
17 | RRIRCRPPRLPRPRPRPKHEPRP | -0.000422
18 | RRIRCRPPRLPRPRPRPKIQPRP | -0.156
19 | RRIRCRPPRLPRPRPRPKKYPRP | -0.485
20 | RRIRCRPPRLPRPRPRPKMCPRP | -0.164
21 | RRIRCRPPRLPRPRPRPKPQPRP | 0.324
22 | RRIRCRPPRLPRPRPRPKRTPRP | 0.642
23 | RRIRCRPPRLPRPRPRPKSAPRP | 0.146
24 | RRIRCRPPRLPRPRPRPKSMPRP | -0.541
25 | RRIRCRPPRLPRPRPRPKSNPRP | -0.274

Row | Sequence | shrunken log2 fold change
26 | RRIRCRPPRLPRPRPRPKTVPRP | -0.109
27 | RRIRCRPPRLPRPRPRPKVKPRP | -0.133
28 | RRIRCRPPRLPRPRPRPKWNPRP | -0.373
29 | RRIRCRPPRLPRPRPRPKYFPRP | -0.501
30 | RRIRCRPPRLPRPRPRPKYYPRP | 0.167
31 | RRIRCRPPRLPRPRPRPLADPRP | 0.4
32 | RRIRCRPPRLPRPRPRPLANPRP | 0.452
33 | RRIRCRPPRLPRPRPRPLCFPRP | -0.0241
34 | RRIRCRPPRLPRPRPRPLCIPRP | -0.353
35 | RRIRCRPPRLPRPRPRPLCLPRP | -0.525
36 | RRIRCRPPRLPRPRPRPLECPRP | -0.354
37 | RRIRCRPPRLPRPRPRPLFEPRP | 0.193
38 | RRIRCRPPRLPRPRPRPLFFPRP | -0.273
39 | RRIRCRPPRLPRPRPRPLHSPRP | -0.383
40 | RRIRCRPPRLPRPRPRPLIFPRP | -0.514
41 | RRIRCRPPRLPRPRPRPLMLPRP | -0.646
42 | RRIRCRPPRLPRPRPRPLNIPRP | -0.379
43 | RRIRCRPPRLPRPRPRPLPCPRP | 0.0339
44 | RRIRCRPPRLPRPRPRPLPHPRP | 0.102
45 | RRIRCRPPRLPRPRPRPLPSPRP | 0.214
46 | RRIRCRPPRLPRPRPRPLQAPRP | 0.646
47 | RRIRCRPPRLPRPRPRPLQKPRP | -0.0859
48 | RRIRCRPPRLPRPRPRPLRGPRP | 0.835
49 | RRIRCRPPRLPRPRPRPLSDPRP | 0.0896
50 | RRIRCRPPRLPRPRPRPLSIPRP | -0.917

Row | Sequence | shrunken log2 fold change
51 | RRIRCRPPRLPRPRPRPLTFPRP | -0.419
52 | RRIRCRPPRLPRPRPRPLTYPRP | -0.19
53 | RRIRCRPPRLPRPRPRPLVAPRP | 0.033
54 | RRIRCRPPRLPRPRPRPMDRPRP | -0.0115
55 | RRIRCRPPRLPRPRPRPMEAPRP | -0.0255
56 | RRIRCRPPRLPRPRPRPMFVPRP | -0.261
57 | RRIRCRPPRLPRPRPRPMHWPRP | 0.00478
58 | RRIRCRPPRLPRPRPRPMIDPRP | 0.0647
59 | RRIRCRPPRLPRPRPRPMLDPRP | 0.0729
60 | RRIRCRPPRLPRPRPRPMMHPRP | -0.175
61 | RRIRCRPPRLPRPRPRPMNFPRP | -0.383
62 | RRIRCRPPRLPRPRPRPMNPPRP | -0.24
63 | RRIRCRPPRLPRPRPRPMPPPRP | 0.914
64 | RRIRCRPPRLPRPRPRPMRVPRP | 0.839
65 | RRIRCRPPRLPRPRPRPMVAPRP | 0.0319
66 | RRIRCRPPRLPRPRPRPMVTPRP | -0.071
67 | RRIRCRPPRLPRPRPRPMYHPRP | -0.974
68 | RRIRCRPPRLPRPRPRPMYIPRP | -0.675
69 | RRIRCRPPRLPRPRPRPMYWPRP | 0.0082
70 | RRIRCRPPRLPRPRPRPNAMPRP | 0.0678
71 | RRIRCRPPRLPRPRPRPNAVPRP | 0.0238
72 | RRIRCRPPRLPRPRPRPNCDPRP | -0.233
73 | RRIRCRPPRLPRPRPRPNCNPRP | -0.375
74 | RRIRCRPPRLPRPRPRPNDTPRP | -0.461
75 | RRIRCRPPRLPRPRPRPNFCPRP | -0.157

Row | Sequence | shrunken log2 fold change
76 | RRIRCRPPRLPRPRPRPNGFPRP | -0.0899
77 | RRIRCRPPRLPRPRPRPNILPRP | -0.701
78 | RRIRCRPPRLPRPRPRPNLHPRP | -0.619
79 | RRIRCRPPRLPRPRPRPNNDPRP | -0.643
80 | RRIRCRPPRLPRPRPRPNNFPRP | -0.493
81 | RRIRCRPPRLPRPRPRPNPCPRP | -0.209
82 | RRIRCRPPRLPRPRPRPNPDPRP | -0.306
83 | RRIRCRPPRLPRPRPRPNPGPRP | -0.0632
84 | RRIRCRPPRLPRPRPRPNSKPRP | 0.297
85 | RRIRCRPPRLPRPRPRPNSMPRP | -0.745
86 | RRIRCRPPRLPRPRPRPNVEPRP | -0.216
87 | RRIRCRPPRLPRPRPRPNWHPRP | -0.271
88 | RRIRCRPPRLPRPRPRPNYEPRP | -0.442
89 | RRIRCRPPRLPRPRPRPNYTPRP | -0.879
90 | RRIRCRPPRLPRPRPRPPAMPRP | 0.241
91 | RRIRCRPPRLPRPRPRPPASPRP | 0.723
92 | RRIRCRPPRLPRPRPRPPAYPRP | 0.176
93 | RRIRCRPPRLPRPRPRPPFDPRP | 0.415
94 | RRIRCRPPRLPRPRPRPPFKPRP | 0.313
95 | RRIRCRPPRLPRPRPRPPGDPRP | 0.346
96 | RRIRCRPPRLPRPRPRPPGIPRP | 3.39
97 | RRIRCRPPRLPRPRPRPPGMPRP | 0.326
98 | RRIRCRPPRLPRPRPRPPHAPRP | 1.04
99 | RRIRCRPPRLPRPRPRPPLEPRP | 0.186
100 | RRIRCRPPRLPRPRPRPPLRPRP | 0.35

Row | Sequence | shrunken log2 fold change
101 | RRIRCRPPRLPRPRPRPPLSPRP | 0.312
102 | RRIRCRPPRLPRPRPRPPNDPRP | 0.383
103 | RRIRCRPPRLPRPRPRPPNFPRP | -0.0525
104 | RRIRCRPPRLPRPRPRPPPAPRP | 1.46
105 | RRIRCRPPRLPRPRPRPPQCPRP | 0.182
106 | RRIRCRPPRLPRPRPRPPQNPRP | 0.801
107 | RRIRCRPPRLPRPRPRPPRNPRP | 1.05
108 | RRIRCRPPRLPRPRPRPPSRPRP | 0.558
109 | RRIRCRPPRLPRPRPRPPSVPRP | 0.292
110 | RRIRCRPPRLPRPRPRPPTWPRP | 0.0486
111 | RRIRCRPPRLPRPRPRPPVVPRP | 0.0152
112 | RRIRCRPPRLPRPRPRPPWAPRP | 0.317
113 | RRIRCRPPRLPRPRPRPQANPRP | 0.0603
114 | RRIRCRPPRLPRPRPRPQDKPRP | -0.579
115 | RRIRCRPPRLPRPRPRPQEHPRP | -0.389
116 | RRIRCRPPRLPRPRPRPQIQPRP | -0.288
117 | RRIRCRPPRLPRPRPRPQIWPRP | -0.226
118 | RRIRCRPPRLPRPRPRPQLEPRP | -0.135
119 | RRIRCRPPRLPRPRPRPQLPPRP | -0.104
120 | RRIRCRPPRLPRPRPRPQLRPRP | -0.127
121 | RRIRCRPPRLPRPRPRPQMCPRP | -0.157
122 | RRIRCRPPRLPRPRPRPQPFPRP | 0.00986
123 | RRIRCRPPRLPRPRPRPQPLPRP | 0.19
124 | RRIRCRPPRLPRPRPRPQQFPRP | -0.217
125 | RRIRCRPPRLPRPRPRPQSPPRP | -0.0224

Row | Sequence | shrunken log2 fold change
126 | RRIRCRPPRLPRPRPRPQSYPRP | -0.308
127 | RRIRCRPPRLPRPRPRPQTVPRP | -0.275
128 | RRIRCRPPRLPRPRPRPQVCPRP | -0.203
129 | RRIRCRPPRLPRPRPRPQVEPRP | 0.0599
130 | RRIRCRPPRLPRPRPRPQYLPRP | -0.964
131 | RRIRCRPPRLPRPRPRPRACPRP | 0.24
132 | RRIRCRPPRLPRPRPRPRAQPRP | 0.4
133 | RRIRCRPPRLPRPRPRPRCEPRP | 0.0872
134 | RRIRCRPPRLPRPRPRPRCQPRP | -0.146
135 | RRIRCRPPRLPRPRPRPRCTPRP | -0.00347
136 | RRIRCRPPRLPRPRPRPREHPRP | 0.161
137 | RRIRCRPPRLPRPRPRPREKPRP | 1.12
138 | RRIRCRPPRLPRPRPRPRERPRP | 0.875
139 | RRIRCRPPRLPRPRPRPRETPRP | 0.647
140 | RRIRCRPPRLPRPRPRPRFMPRP | -0.244
141 | RRIRCRPPRLPRPRPRPRHLPRP | -0.302
142 | RRIRCRPPRLPRPRPRPRHPPRP | 0.11
143 | RRIRCRPPRLPRPRPRPRIDPRP | 0.117
144 | RRIRCRPPRLPRPRPRPRIFPRP | -0.16
145 | RRIRCRPPRLPRPRPRPRILPRP | -0.567
146 | RRIRCRPPRLPRPRPRPRKAPRP | 0.578
147 | RRIRCRPPRLPRPRPRPRLKPRP | 0.0782
148 | RRIRCRPPRLPRPRPRPRLVPRP | 0.0587
149 | RRIRCRPPRLPRPRPRPRLYPRP | -0.307
150 | RRIRCRPPRLPRPRPRPRNAPRP | 0.291
